Starred links: 1 amine or outer side, 2 acyl side, 3 side chain; linkers in the order of their positions; H or OH if unused. Non-standard residues stand in square brackets, D forms with d. Groups on a side chain read outwards from the residue. No end group written: not given here. *: point of attachment. C20 diacid = O=C(O)CCCCCCCCCCCCCCCCCCC(=O)*; C18 diacid = O=C(O)CCCCCCCCCCCCCCCCC(=O)*; γGlu = O=C(O)[C@H](CCC(=O)[*:2])N[*:1]; αMeF = C[C@](N)(Cc1ccccc1)C(=O)O; AEEA = NCCOCCOCC(=O)O; Aib = CC(C)(N)C(=O)O
B1: Peptide 514 (peptide)
peptide: H[Aib]QGTFTSDVSK[αMeF]LDTK([AEEA-AEEA-γGlu-C18 diacid])AARDFVQWLLE[Aib]G-NH2
modifications: N-terminus assumed
SMILES: CC(C)C[C@H](NC(=O)[C@H](Cc1c[nH]c2ccccc12)NC(=O)[C@H](CCC(N)=O)NC(=O)[C@@H](NC(=O)[C@H](Cc1ccccc1)NC(=O)[C@H](CC(=O)O)NC(=O)[C@H](CCCNC(=N)N)NC(=O)[C@H](C)NC(=O)[C@H](C)NC(=O)[C@H](CCCCNC(=O)COCCOCCNC(=O)COCCOCCNC(=O)CC[C@H](NC(=O)CCCCCCCCCCCCCCCCC(=O)O)C(=O)O)NC(=O)[C@@H](NC(=O)[C@H](CC(=O)O)NC(=O)[C@H](CC(C)C)NC(=O)[C@](C)(Cc1ccccc1)NC(=O)[C@H](CCCCN)NC(=O)[C@H](CO)NC(=O)[C@@H](NC(=O)[C@H](CC(=O)O)NC(=O)[C@H](CO)NC(=O)[C@@H](NC(=O)[C@H](Cc1ccccc1)NC(=O)[C@@H](NC(=O)CNC(=O)[C@H](CCC(N)=O)NC(=O)C(C)(C)NC(=O)[C@@H](N)Cc1c[nH]cn1)[C@@H](C)O)[C@@H](C)O)C(C)C)[C@@H](C)O)C(C)C)C(=O)N[C@@H](CC(C)C)C(=O)N[C@@H](CCC(=O)O)C(=O)NC(C)(C)C(=O)NCC(N)=O
B2: Peptide 513 (peptide)
peptide: H[Aib]QGT[αMeF]TSDVSK[αMeF]LDTK([AEEA-AEEA-γGlu-C18 diacid])RARD[αMeF]VQWLLA[Aib]G-NH2
modifications: N-terminus assumed
SMILES: CC(C)C[C@H](NC(=O)[C@H](CC(C)C)NC(=O)[C@H](Cc1c[nH]c2ccccc12)NC(=O)[C@H](CCC(N)=O)NC(=O)[C@@H](NC(=O)[C@](C)(Cc1ccccc1)NC(=O)[C@H](CC(=O)O)NC(=O)[C@H](CCCNC(=N)N)NC(=O)[C@H](C)NC(=O)[C@H](CCCNC(=N)N)NC(=O)[C@H](CCCCNC(=O)COCCOCCNC(=O)COCCOCCNC(=O)CC[C@H](NC(=O)CCCCCCCCCCCCCCCCC(=O)O)C(=O)O)NC(=O)[C@@H](NC(=O)[C@H](CC(=O)O)NC(=O)[C@H](CC(C)C)NC(=O)[C@](C)(Cc1ccccc1)NC(=O)[C@H](CCCCN)NC(=O)[C@H](CO)NC(=O)[C@@H](NC(=O)[C@H](CC(=O)O)NC(=O)[C@H](CO)NC(=O)[C@@H](NC(=O)[C@](C)(Cc1ccccc1)NC(=O)[C@@H](NC(=O)CNC(=O)[C@H](CCC(N)=O)NC(=O)C(C)(C)NC(=O)[C@@H](N)Cc1c[nH]cn1)[C@@H](C)O)[C@@H](C)O)C(C)C)[C@@H](C)O)C(C)C)C(=O)N[C@@H](C)C(=O)NC(C)(C)C(=O)NCC(N)=O
B3: Peptide 509 (peptide)
peptide: H[Aib]QGTFTSDVSK[αMeF]LESK([AEEA-AEEA-γGlu-C20 diacid])RAQDFVRWLL[Aib]TE-OH
modifications: N-terminus assumed
SMILES: CC(C)C[C@H](NC(=O)[C@H](Cc1c[nH]c2ccccc12)NC(=O)[C@H](CCCNC(=N)N)NC(=O)[C@@H](NC(=O)[C@H](Cc1ccccc1)NC(=O)[C@H](CC(=O)O)NC(=O)[C@H](CCC(N)=O)NC(=O)[C@H](C)NC(=O)[C@H](CCCNC(=N)N)NC(=O)[C@H](CCCCNC(=O)COCCOCCNC(=O)COCCOCCNC(=O)CC[C@H](NC(=O)CCCCCCCCCCCCCCCCCCC(=O)O)C(=O)O)NC(=O)[C@H](CO)NC(=O)[C@H](CCC(=O)O)NC(=O)[C@H](CC(C)C)NC(=O)[C@](C)(Cc1ccccc1)NC(=O)[C@H](CCCCN)NC(=O)[C@H](CO)NC(=O)[C@@H](NC(=O)[C@H](CC(=O)O)NC(=O)[C@H](CO)NC(=O)[C@@H](NC(=O)[C@H](Cc1ccccc1)NC(=O)[C@@H](NC(=O)CNC(=O)[C@H](CCC(N)=O)NC(=O)C(C)(C)NC(=O)[C@@H](N)Cc1c[nH]cn1)[C@@H](C)O)[C@@H](C)O)C(C)C)C(C)C)C(=O)N[C@@H](CC(C)C)C(=O)NC(C)(C)C(=O)N[C@H](C(=O)N[C@@H](CCC(=O)O)C(=O)O)[C@@H](C)O
B4: Peptide 510 (peptide)
peptide: H[Aib]QGTFTSDVSK[αMeF]LDTK([AEEA-AEEA-γGlu-C20 diacid])RARDFVRWLL[Aib]E-OH
modifications: N-terminus assumed
SMILES: CC(C)C[C@H](NC(=O)[C@H](Cc1c[nH]c2ccccc12)NC(=O)[C@H](CCCNC(=N)N)NC(=O)[C@@H](NC(=O)[C@H](Cc1ccccc1)NC(=O)[C@H](CC(=O)O)NC(=O)[C@H](CCCNC(=N)N)NC(=O)[C@H](C)NC(=O)[C@H](CCCNC(=N)N)NC(=O)[C@H](CCCCNC(=O)COCCOCCNC(=O)COCCOCCNC(=O)CC[C@H](NC(=O)CCCCCCCCCCCCCCCCCCC(=O)O)C(=O)O)NC(=O)[C@@H](NC(=O)[C@H](CC(=O)O)NC(=O)[C@H](CC(C)C)NC(=O)[C@](C)(Cc1ccccc1)NC(=O)[C@H](CCCCN)NC(=O)[C@H](CO)NC(=O)[C@@H](NC(=O)[C@H](CC(=O)O)NC(=O)[C@H](CO)NC(=O)[C@@H](NC(=O)[C@H](Cc1ccccc1)NC(=O)[C@@H](NC(=O)CNC(=O)[C@H](CCC(N)=O)NC(=O)C(C)(C)NC(=O)[C@@H](N)Cc1c[nH]cn1)[C@@H](C)O)[C@@H](C)O)C(C)C)[C@@H](C)O)C(C)C)C(=O)N[C@@H](CC(C)C)C(=O)NC(C)(C)C(=O)N[C@@H](CCC(=O)O)C(=O)O
B5: Peptide 512 (peptide)
peptide: H[Aib]QGT[αMeF]TSDVSK[αMeF]LDTK([AEEA-AEEA-γGlu-C18 diacid])RAQD[αMeF]VRWLLA[Aib]G-NH2
modifications: N-terminus assumed
SMILES: CC(C)C[C@H](NC(=O)[C@H](CC(C)C)NC(=O)[C@H](Cc1c[nH]c2ccccc12)NC(=O)[C@H](CCCNC(=N)N)NC(=O)[C@@H](NC(=O)[C@](C)(Cc1ccccc1)NC(=O)[C@H](CC(=O)O)NC(=O)[C@H](CCC(N)=O)NC(=O)[C@H](C)NC(=O)[C@H](CCCNC(=N)N)NC(=O)[C@H](CCCCNC(=O)COCCOCCNC(=O)COCCOCCNC(=O)CC[C@H](NC(=O)CCCCCCCCCCCCCCCCC(=O)O)C(=O)O)NC(=O)[C@@H](NC(=O)[C@H](CC(=O)O)NC(=O)[C@H](CC(C)C)NC(=O)[C@](C)(Cc1ccccc1)NC(=O)[C@H](CCCCN)NC(=O)[C@H](CO)NC(=O)[C@@H](NC(=O)[C@H](CC(=O)O)NC(=O)[C@H](CO)NC(=O)[C@@H](NC(=O)[C@](C)(Cc1ccccc1)NC(=O)[C@@H](NC(=O)CNC(=O)[C@H](CCC(N)=O)NC(=O)C(C)(C)NC(=O)[C@@H](N)Cc1c[nH]cn1)[C@@H](C)O)[C@@H](C)O)C(C)C)[C@@H](C)O)C(C)C)C(=O)N[C@@H](C)C(=O)NC(C)(C)C(=O)NCC(N)=O

Target: human GLP-1 receptor (human, UniProt P43220)
Test: cell-based or functional assay

cAMP production EC50 [nM] | Binder
0.0767 | B1
0.0938 | B2
0.594 | B3
0.176 | B4
0.159 | B5

Target: human glucagon receptor (human, UniProt P47871)
Test: cell-based or functional assay

cAMP production EC50 [nM] | Binder
1.37 | B1
1.34 | B2
3.02 | B3
0.118 | B4
2.31 | B5

Reference: patent US12630600B2 (MEDIMMUNE LIMITED, priority 2022, dated 2026)
